The data set is described as follows: soluble on expression in E. coli; label from the status in PepcDB or PDB records.
Regarding “MAVKKIAIFGATGQTGLTTLAQAVQAGYEVTVLVRDSSRLPSEGPRPAHVVVGDVLQAADVDKTVAGQDAVIVLLGTRNDLSPTTVMSEGARNIVAAMKAHGVDKVVACTSAFLLWDPTKVPPRLQAVTDDHIRMHKVLRESGLKYVAVMPPHIGDQPLTGAYTVTLDGRGPSRVISKHDLGHFMLRCLTTDEYDGHSTYPSHQYQ”, the “soluble on expression in E. coli” value is given as “soluble”.
As to “MPHVLVLNASYEPLGVVPLRRALVLVLENKAVCLEESGAFMHSATVTVPAPSVVRLKRFVRVPYRGPVPLTRRALFARDGGRCMYCGGVATSVDHVIPRSRGGQHAWDNVVASCRRCNHVKADRHLFEIGWRLRHKPAPPTGLAWRIIGTGHRDPRWLPYLQPYGADDAMARIDGISAAAALEHHHHHH”, the “soluble on expression in E. coli” value is on record as “not soluble”.
In the case of “HISSQQHEKAIKSYFDEAQTQGVIIIKEGKNLSTYGNALARANKEYVPASTFKMLNALIGLENHKATTNEIFKWDGKKRTYPMWEKDMTLGEAMALSAVPVYQELARRTGLELMQKEVKRVNFGNTNIGTQVDNFWLVGPLKITPVQEVNFADDLAHNRLPFKLETQEEVKKMLLIKEVNGSKIYAKSGWGMGVTPQVGWLTGWVEQANGKKIPFSLNLEMKEGMSGSIRNEITYKSLENLGII” it was “soluble”; in that of “MAHHHHHHMFSLSDTQLGISPMRQFSPSLFRQNKVAEKYRATQGTGIGPQYHQLSDGRLVRPGTSHTKLLPMLEPGETVDWEKLPSYYHWYPKEELHDYIENTTWREIKGRPTGEPLEKRLRKAITGGTFEKDEAPAPDLMPWNSATIPITKFPHERNDEEIIVVDPKTGRIIGMERETYERWKRMMEERRAGLPESDPVEYDQERYVTNKDGVVFDLSKMKYRPIFEGRWNPRRQQSTGRTNPIMT”, “soluble”; in that of “LSPSLPSVEALRNVQLQIPLKVYSEDGKLISEFGEMRRTPIRFADIPQDFIHALLSAEDDNFANHYGVDVKSLMRAAAQLLKSGHIQTGGSTITMQVAKNYFLTNERSFSRKINEILLALQIERQLTKDEILELYVNKIYLGNRAYGIEAAAQVYYGKPIKDLSLAEMAMIAGLPKAPSRYNPLVNPTRSTERRNWILERMLKLGFIDQQRYQAAVEEPINASYHVQTPELNAPYIAEMARAEMVGRYGSEAYTEGYKVITTVRSDLQNAASQSVRDGLIDYDQRHGYRGPETRLPGQTRDAWLKHLGQQRSIGGLEPAIVTQVEKSGIMVMTRDGKEEAVTWDSMKWARPFLSNNSMGPMPRQPADVAQAGDQIRVQRQEDGTLRFVQIPAAQSALISLDPKDGAIRSLVGGFSFEQSNYNRAIQAKRQPGSSFKPFIYSAALDNGFTAASLVNDAPIVFVDEYLDKVWRPKNDTNTFLGPIPLREALYKSRNMVSIRVLQGLGIERAISYITKFGFQRDELPRNFSLALGTATVTPMEIAGAWSVFANGGYKVNPYVIERIESRDGQVLYQANPPRVPVEEQVAADAEDAGNPGDPEHPESAEGEGSIEAQQVAAKAQTTFEPTPAERIIDARTAYIMTSMLQDVIKRGTGRRALALKRTDLAGKTGTTNDSKDGWFSGYNSDYVTSVWVGFDQPETLGRREYGGTVALPIWIRYMGFALKDKPMHTMAEPPGIVSLRIDPVTGRSAAPGTPGAYFEMFKNEDTPPSVNELPPGSFPGSPLPDDEGAPIDL”, “not soluble”.
Turning to “NYDPFVRHSVTVKADRKTAFKTFLEGFPEWWPNNFRTTKVGAPLGVDKKGGRWYEIDEQGEEHTFGLIRKVDEPDTLVIGWRLNGFGRIDPDNSSEFTVTFVADGQKKTRVDVEHTHFDRMGTKHAKRVRNGMDKGWPTILQSFQDKIDEEGAKK”, the “soluble on expression in E. coli” value is given as “soluble”.
In the case of “MVLFTRFMLMGIAMPQISRTALVPYSAEQMYQLVNDVQSYPQFLPGCVGSRVLESSPAQMTAAVDVSKAGISKTFTTRNQLTRNQSILMHLVDGPFKKLIGGWKFTPLSPEACRIEFQLDFEFTNKLIELAFGRIFKELASNMVQAFTVRAKEVYRAGLEHHHHHH” it was “not soluble”.
Consider “MGSDKIHHHHHHMLHKNDYRLGIDVGGTNTDAAILDADLRCIATAKFPTSMDIYSGIERVIAAVLAQSGIEPQHICYAMLGTTQCTNAIVERKGLDRVGLLRLSLPSSDSVPPLFGWDDEWQKTLGEHFYQLHGGYEFDGREIHPVLLNEVLAVCDTMRGHVDSVAICGVFSPVNNDQELQVAQWVNAALPDVSLSLSHRIGSTGLLERENATILNASLQSTANRFVNGFIQALVRHGIKATPFFGQNDGTLMSESMVKQYPILTMACGPTNSIRGACHLSGLDNALIIDVGGTTTDIGVLVNGFPRESAIAVEVGDVRTNFRMPDIISIGIGGGTCVRQSQNGTLTLGPDSVGYRLLEQSVSFGGETLTLNDIMLQLQRERWTSSLSHSLPELDKALCLEAYRQMIDKVESAIDRIKSSSAAIPAVLVGGGSILLPDVLSGVSQVMRPQNFDAANAVGVALGKVGAQIERVVKMSDNDREKIKSELQQQTICLAEETGAMPGSVEIIDYQEIPLAYLPGNAVQVKIKAAGNLA”, for which the “soluble on expression in E. coli” value is on record as “not soluble”.
For the sequence “MAINLELPRKLQAIIVKTHQGAAEMMRPIARKYDLKEHAYPVELDTLINLFEGAAESFNFAGAHSLRDEDEGKDENHNGANMAAVVQTMEASWGDVAMMLSLPYQGLGNAAISAVATDEQLERLGKVWAAMAITEPEFGSDSAAVSTTATLDGDEYVINGEKIFVTAGSRATHIVVWATLDKSLGRPAIKSFIVPREHPGVTVERLEHKLGIKGSDTAVIRFDNARIPKGNLLGNPEIEVGKGFAGVMETFDNTRPIVAAMAVGIGRAALEEIRSVLTGAGVEISYDKPSHTQSAAAAEFLRMEADWEASYLLSLRAAWQADNNIPNSKEASMSKAKAGRMASDVTCKTVELAGTTGYSEQSLLEKWARDSKILDIFEGTQQIQQLVVARRLLGLSSSELK”, the “soluble on expression in E. coli” value is reported as “not soluble”.
As to “MSLGYHTLEVTVGNEAETATVISAPEKIELLDDMKNGSLWGWMSQLYSIRSKGSWGVGDFEDLKTMLVEAKKKTGSDFMLINPMHAAEPVPPLTPSPYLPISRRFINFSYIRPESMPEYLTLSHEDRAEVDALHEQVESLNDDARLIDRDAMWRVKKHALWVIYKAGRTKARQAEFDRYLAECGDEIESYATWCLCYDKWGAPSDDADNWVRKYNRDSEEVAQLREKFPDTLEFYRWLEWVATDQLHAAQQAARKAGMKIGIVADMAVGVHPAGSDVWWNPERFAKGATVGAPPDMFNQQGQDWSQPPLNPIALEQTGFKVYRDMVHDMFANAGAVRIDHILGLFRLWWIPEGKPATDGTYVHYDSDVMLGILALEASRAGGVVVGEDLGVVPAYVSKSLSEHGILGCAVEWFEQMDGVFRTPKDWRPYALASVNTHDMPPAAGYLEYGHVKLREQLGLLSGPVEEFQKSATAEHNAMLNMLVEEGYLDKAALDDEAANENEIVDALYRGLKGSPCKLMAASIVDAVGEKRTQNQPGTNNEYPNWRIPLADGEGNVVPLEKLFDEPRLQEITAIMREGHHHHHH”, the “soluble on expression in E. coli” value is “not soluble”.
In the case of “MSLDLSASRSDGGDPLRPASPRLRSPVSDGGDPLRPASPRLRSPVSDGGDPLRPASPRLRSPLGASRPVVGLTAYLEQVRTGVWDIPAGYLPADYFEGITMAGGVAVLLPPQPVDPESVGCVLDSLHALVITGGYDLDPAAYGQEPHPATDHPRPGRDAWEFALLRGALQRGMPVLGICRGTQVLNVALGGTLHQHLPDILGHSGHRAGNGVFTRLPVHTASGTRLAELIGESADVPCYHHQAIDQVGEGLVVSAVDVDGVIEALELPGDTFVLAVQWHPEKSLDDLRLFKALVDAASGYAGRQSQAEPREGGSHHHHHH” it was “soluble”; in that of “MRMSKMARKDPTIEFCQLGLDTFETKYITMFGMLVSCSFDKPAFISFVFSDFTKNDIVQNYLYDRYLIDYENKLELNEGFKAIMYKNQFETFDSKLRKIFNNGLRDLQNGRDENLSQYGIVCKMNIKVKMYNGKLNAIVRECEPVPHSQISSIASPSQCEHLRLFYQRAFKRIGESAISRYFEEYRRFFPIHRNGSHLA”, “soluble”.
In the case of “MEVMAQIVLAPHLAGRFDDPDHIRRCIQLYSYRIPANYRRLFDFLFNTEQDFPDCDEFSFFVSVRLNIPTKILNFSEEFGKCVSLHILRKLDVIPPFSKRSQLIILKEVESLKKSIRLCDHMEQCVVAAFQQLLEDEEACIQSVHRLMPVITRSLSQSALEDLINPMIELIQCETSVKLLDRRFLMHVSICYGTHTFLDLFLPPIVEACASMNCDRSVVAKESIMWLAKRYGPVICAKFISSNVLRIMASCYEAFEMVGLEQQPKAVFNVVLQGDETCSRIESLLSEIVLTYSVTFITVQFLPFCVDLIEQFHKRSSVQLEPGLVSVFRIVELSIRSMSDHQLMNYLEEFIIQKVCQLLHSITQKIGTENTRIYANQPFKLMFSTFSEIYETDEELRINLRKRPSENTLFEVPLWMVEDVVDKFAKEWGVPFLSSFCDDPAFLIPFVSNSSSSSSPPASIAHSPPSAFTAYSLGGMSSGNRLFSLSASSPVNSVNSLGGLSFCDSGSLSAVWCARVSAAVCGVDNYRFDHLSLCNYTGHQEKIRKLAAISNENSFVSASSDKTVKLWSIKPELDEIGCQWTYQKHTRPVHDITILADNSIASTDGVLHVWDPFRTTLLAQMEWDSKEGSGGNIMRVENVDRHILSAICSLHSTVKLFDSRVGGWTCELKVSPGPGLTRAITVRDKGNKMAVALSNGTLAILDARNGKINALAQTNSTHTVSVNWLSDTRLLVCDADECGIFLETNPRAHIVRKLQDPSIPKQW” it was “not soluble”; in that of “MSLTPAPDLTLGTAVDWRFAATVGRRLARPGPPSTDYTRRQVIDELAGAATKAEPLVRQVTGLLTDGADDGRVPAARIVDRPEWIAAAAESMRVMMNGTERPRGFLTGRVTGAQTGAVLAYVSSGILGQYDPFATDRGAGAGCLLLVYPNVIAVERQLRIEPSDFRLWVCLHEVTHRVQFTANPWLPGYMSQALALLTRDTGDDLGQVLSRLADYARNRGNTASQADANSTGILGLVRAVQSEPQRQALDQLLVLGTLLEGHADHVMDAVGPMAVPSVATIRRRFDERRHRKQPPLQRLLRALLGLDAKLSQYTRGKAFVDQVVGRVGMARFNAVWTGPETLPLPVEIEEPQRWIDRVLEGHHHHHH”, “soluble”; in that of “MGSDKIHHHHHHMRLDTLSKTGGGVQEALSGSVRLYSEVLNREVEVPETPRRIVSLSPAITETLYMLGLEDRIAGVSVYDHKPPKAREKPKVGSYYKVNMKLLEQLNPDLILVTTGAQRRILEDLSRRYPVYPIPLPVSVSGIIDQAVQVGIVTGALEEASRLETELLDKASKLRGAGRGLRIYYEVYLGGPVTAGAHTYISDAFRIAGVETPFMSERTTWIYQPPPERINRFKPQFILYEYSAYAPTTAEKVRGELEARGVDVGSAELVLLEPDTLAHYGPSFIDTMLDLLKTLRDKAGLG”, “not soluble”.

Values taken from the DeepSol protein solubility set.
